Source: patent publication US20240182571A1 (OSE IMMUNOTHERAPEUTICS, published 2024)

Tests used:
PD-1 expressed on cells [1] = target: T1, PD-1 expressed on cells (UniProt Q15116 25-288); assay: flow cytometry, 1:1 co-culture of U937 PD-1+ and U937 PD-1- cells, detection with anti-human IgG PE, % positive cells [middle panel]
T1 construct: whole, on cells; also called U937 PD-1+ cells; U937 PD-1+ CD127+ cells

PD-1 expressed on cells [2] = target: T1, PD-1 expressed on cells; assay: flow cytometry (FACs analysis), U937 PD-1+ CD127+ cells co-cultured with U937 PD-1- CD127+ cells, detection with anti-human IgG PE, % cell binding
Description: (§1) U937 cells expressing CD127+ or co-expressing CD127+ and PD-1+ cells were stained with a cell proliferation dye (CPDe450 or CPDe670) and co-cultivated at ratio 1:1 prior incubation with different concentrations of anti PD-1 IL-7 bifunctional molecules. Staining with and anti-human IgG PE and pSTAT5 activation was quantified after incubation by flow cytometry. A. EC50 binding (nM) was calculated for each cell type and each construction. B. EC50 pSTAT5 (nM) was calculated for each cell type and each construction.
(§2) Finally, the specific cis-targeting and cis-activity of the different anti PD-1 IL-7 constructions were analyzed in a co-culture assay. U937 PD-1+ CD127+ cells were mixed with PD-1− CD127+ cells (ratio 1:1), then incubated with the different constructions at escalating doses. The binding and the IL-7R signaling (pSTAT5) was quantified by flow cytometry. EC50 (nM) of the binding and the pSTAT5 activation was determined for each construction and for each PD-1+ and PD-1− cell population (FIG. 4A and B).
(§3) U937 transduced with CD127 and PD-1 were mixed with U937 transduced with CD127+ only.

PD-1 expressed on cells [3] = target: T1, PD-1 expressed on cells; assay: as above; remark: listed apart in the source
Description: as §1, §2, §3

[4] = target: T2, Recombinant hPD1 (Sino Biologicals, reference 10377-H08H) (human, UniProt Q15116 25-167); assay: ELISA, recombinant human PD-1 immobilised, anti-human Fc peroxidase
T2 construct: Bought reagent, immobilised on plastic; also called Human recombinant PD-1; rPD1
Description: (§4) A. PD-1 binding ELISA assay. Human recombinant PD-1 (rPD1) protein was immobilized, and antibodies were added at different concentrations. Revelation was performed with an anti-human Fc antibody coupled to peroxidase. Colorimetry was determined at 450 nm using TMB substrate. […] All constructions tested comprise a […] linker between the Fc and IL-7 domain.
For activity ELISA assay, recombinant hPD1 (Sino Biologicals, Beijing, China; reference 10377-H08H) was immobilized on plastic at 0.5 μg/ml in carbonate buffer (pH9.2) and purified antibody were added to measure binding.

[5] = target: T3, biotinylated Human PD1 (AcroBiosystems, reference EP-101) (human, UniProt Q15116 25-167, limits assumed, biotinylated); assay: competitive ELISA, PD-L1 immobilised, antibody mixed with biotinylated human PD-1; PD1/PDL1 antagonist activity
T3 construct: also called biotinylated recombinant human PD-1; Biotin-PD-1Fc
Description: as §4
Purified antibody (at different concentrations) were mixed with 0.66 μg/ml final (fix concentration) of biotinylated Human PD1 (AcroBiosystems; USA; reference EP-101) to measure competitive binding for 2 h at 37° C.

PD-1 expressed on cells [6] = target: T1, PD-1 expressed on cells; assay: flow cytometry, 1:1 co-culture of U937 PD-1+ and U937 PD-1- cells, detection with anti-human IgG PE, % positive cells

T1 sequence (Q15116 25-288): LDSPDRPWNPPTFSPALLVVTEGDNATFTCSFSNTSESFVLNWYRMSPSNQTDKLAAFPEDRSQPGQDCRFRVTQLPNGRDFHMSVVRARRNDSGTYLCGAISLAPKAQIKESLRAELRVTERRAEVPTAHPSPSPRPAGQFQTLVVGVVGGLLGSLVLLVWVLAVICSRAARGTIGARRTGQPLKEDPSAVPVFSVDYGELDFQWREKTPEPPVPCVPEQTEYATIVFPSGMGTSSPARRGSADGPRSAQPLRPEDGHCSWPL
T2 sequence (Q15116 25-167 limits assumed): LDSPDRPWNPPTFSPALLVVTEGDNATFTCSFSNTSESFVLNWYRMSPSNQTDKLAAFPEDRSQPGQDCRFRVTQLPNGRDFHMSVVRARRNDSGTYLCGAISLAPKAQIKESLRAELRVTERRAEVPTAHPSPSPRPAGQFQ
T3 sequence (Q15116 25-167 limits assumed): as above

Binder | EC50 (read off the curve) (PD-1 expressed on cells [1]) | EC50 (read off the curve) (PD-1 expressed on cells [2]) | EC50 (read off the curve) (PD-1 expressed on cells [3]) | EC50 [4] | EC50 [5] | EC50 (read off the curve) (PD-1 expressed on cells [6])
anti PD-1*2 (antibody, human IgG4 S228P, kappa, V domains shown, Anti PD-1 antibody with 2 anti PD-1 arms and no cytokine; also called anti PD-1 alone; anti PD-1 control) VH: QIQLVQSGSELKKPGASVKVSCKASGYTFTHYAMNWVRQAPGQGLEWMGWINTNTGEPTYAQGFTGRFVFSLDTSVSTAYLQISSLKAEDTAVYYCAREREPGMDNWGQGTLVTVSS VL: DVVMTQSPLSLPVTLGQPASISCRSSQSLVHANTNTYLEWYQQRPGQSPRLLIYKVSNRFSGVPDRFSGSGSGTDFTLKISRVEAEDVGVYYCFQGTHVPNTFGQGTKLEIKR | ~0.005 nM | ~0.02 nM | ~0.02 nM | 0.021 nM | – | –
anti PD-1*1 (antibody, human IgG1, kappa, N297A, One-armed control: like construction 3 but without IL-7; Chain A is the Fc chain (knob), chain B the anti PD-1 heavy chain (hole)) DKTHTCPPCPAPELLGGPSVFLFPPKPKDTLMISRTPEVTCVVVDVSHEDPEVKFNWYVDGVEVHNAKTKPREEQYASTYRVVSVLTVLHQDWLNGKEYKCKVSNKALPAPIEKTISKAKGQPREPQVYTLPPCRDELTKNQVSLWCLVKGFYPSDIAVEWESNGQPENNYKTTPPVLDSDGSFFLYSKLTVDKSRWQQGNVFSCSVMHEALHNHYTQKSLSLSPGK heavy: not shown light: DVVMTQSPLSLPVTLGQPASISCRSSQSLVHANTNTYLEWYQQRPGQSPRLLIYKVSNRFSGVPDRFSGSGSGTDFTLKISRVEAEDVGVYYCFQGTHVPNTFGQGTKLEIKRTVAAPSVFIFPPSDEQLKSGTASVVCLLNNFYPREAKVQWKVDNALQSGNSQESVTEQDSKDSTYSLSSTLTLSKADYEKHKVYACEVTHQGLSSPVTKSFNRGEC | – | – | – | 0.238 nM | 5.01 nM | ~0.02 nM
